In the supplement of paper PMC9170038:

System: MS2 coat protein
Assay: apparent KD of MS2 coat protein; higher = weaker reporter binding
Conditions: Eterna round: R107
How it was run: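 Designed RNA switches, transcribed on-chip from Illumina sequencing clusters, were titrated with SNAP-549-labelled MS2 coat protein from 0.7 or 1.5 nM to 3 µM in twofold steps. The solution was 100 mM Tris-HCl pH 7.5, 80 mM KCl, 4 mM MgCl2, with constant ligand or without it. Apparent KD is the median over each design's normalised cluster binding-curve fits.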

[1] = input ligand: theophylline 20 uM
[2] = input ligand: theophylline 2 mM
[3] = input ligand: tryptophan 2.4 mM

| Sequence | apparent KD of MS2 coat protein (input ligand: arginine 13.2 mM) [nM] | apparent KD of MS2 coat protein (input ligand: none) [nM] | apparent KD of MS2 coat protein [1] [nM] | apparent KD of MS2 coat protein [2] [nM] | apparent KD of MS2 coat protein [3] [nM] |
| --- | --- | --- | --- | --- | --- |
| UAUGCACAUGAGGAUCACCCAUGUAUGGAAGGAGCGGUGAAUAAACCAGGUAGGUCGCCAUUGUGAGGGUCAUCUAUGUAAUCGU [Exclusion - Arginine A (Freestyle 4)] | 58.6 | 85.3 | 125 | 133 | 91.8 |
| GGGAAUGAACGUGAUACCAGAGAUCCGGUCUCCGUCAAUAUACAUGAGGAUCACCCAUGUCUCCCUUGGCAGCACCGUCAUCGGG [Exclusion Theophylline B GF 28] | 14.3 |  | 20.4 |  | 14.5 |
| AUGCGGUGCGGAAGGAGCGAGUUUGCCUAUUACAUGAGGAUCACCCAUGUGGGUAAUGGGACUCAGGUAGGUCGCCGUUGUCGCA [Same State Arginine B GF 28] | 41.9 | 57.5 | 77.9 | 65.1 | 50.1 |
| CGGGUUGGACCAGGAAAUGGUCUGACGCGCCGAGGACCGGUACGGCCGCCACUCGCGGGUACAUGAGGAUCACCCAUGUCGGUGG [#1 Same State - Tryptophan A Attempt #12 (HarryS)] | 58.2 | 50.4 | 69.3 | 61.7 | 93 |
| GGAUAGGACAGAAGGAGCGACAUGGCGACGAAAGUCGAAACUUCACAUGAGGAUCACCCAUGUCAGGUAGGUCGCUGUCCUAUCG [ArgXB 7 #MS2Gate #StaticStem] | 48.8 | 48.9 | 63.8 | 55.7 | 47.1 |
| AUCCACAGCCGAAGGAGCGCUAUAGGAUGACAUGAGGAUCACCCAUGUGUGUGAUGUGGAUAGCAGGUAGGUCGCGGAGUGGAUU [Exclusion - Arginine B (Freestyle 10)] | 73 | 29.5 | 92.5 | 29.1 | 26.3 |
| ACGUCACGUUUACUCGUGGUUUCGAUCGAUACCAGUAGCGAGAGUUACCCUUGGCAGCGACAUGAGGAUCACCCAUGUGCGAAGA [XTheo A #26] | 12.2 |  | 14 |  | 11.7 |
| AUGGUCGACGAUCUGCGAAAAGCAGAUCGACGAGGACCGGUACGGCCGCCACUCGUGUUCAUUAAACAUGAGGAUCACCCAUGUA [#15Tryptophan A Same State] | 41 |  | 68.7 | 70.2 |  |
| AAUUAAUUAACCGAUACCAGCCAACCAAAACAUGAGGAUCACCCAUGUAAGAAGAAGGGUGGCCCUUGGCAGCGGUUAAUUAAUU | 31.4 |  | 16.7 |  | 30.5 |
| AUAUGAUCAUGUGAUACCAGAAAUGGUAGUCUUCACUGGAUUACAUGAGGAUCACCCAUGUUCCCUUGGCAGCAUAUGAUCAUAU [#03 Exclusion-TheophyllineB] | 31.7 |  | 68.2 |  | 43.9 |
| CGGGUUCGGGCGGCCGCCACUUUGAUUGGGUGUGACAUGAGGAUCACCCAUGUUGUGGGUGAUCGGAGGACCGGGUUUGGGCUUG [Fidorka] | 85.2 | 65.6 | 471 | 744 | 240 |
| UUCGUUUGCGGAAGGAGCGACGGACAUCGGUGACCCACGCACAUGAGGAUCACCCAUGUACGUCAGGUAGGUCGCCGCUAAGAGU [XArg-B4] | 20.3 | 17.4 | 47.4 | 41.3 | 12.4 |
| CACUACAUGAGGAUCACCCAUGUAUACUGACGAGGACCGGUACGGCCGCCACUCGAACCGAAACCGACUUCAUUCUGUGUACCAU [theeternabot_sameState_MS2_Trp_A_26] | 15 |  | 22.7 | 19.3 |  |
| CCUGCGUUUCUUCUUUCGCAGGAGGAUGAUACCAGUAGGGAAACCUACCCUUGGCAGCAUGGGACAUGAGGAUCACCCAUGUGGA [SSThA NP+V+V2 #1] | 354 | 503 | 522 | 130 | 430 |
| GAUCGAAAUAACGUCUAGGAAAACUAGACGCGAGGACCGGUACGGCCGCCACUCGGGUGGCACAUGAGGAUCACCCAUGUAGAUC [#SwitchBubble 5 #GuTurnoff #MS2 3'] | 69.4 |  | 110 | 100 |  |
| CAAUUUAUAUGAAGGAGCGUCGAAAAUGGGUAAACAUGAGGAUCACCCAUGUAAAGGGAACGACAGGUAGGUCGCAUAUGGAUUG [AstromonsSSArgB#10] | 123 | 180 | 234 | 316 | 182 |
| GGGAGAUAGGCGGCCGCCACUGAUUUUCAUAUAUAUAUAACAUGAGGAUCACCCAUGUAGAUAUACAGGACCGGGCCUAUUUUUU [aaaE] | 19.1 |  | 22.5 | 19.7 |  |
| GGUUACUCUACGGCCGCCACUGAUUAUUUAUAAUCCUGUACAUAAACAUGAGGAUCACCCAUGUACAGGACCGGGUAGUGUAACC [Tryptophan B 11] | 29.9 |  | 37.7 | 33.5 |  |
| UCGCAUUGCUGCGAUACCAGACAUGAGGAUCACCCAUGUACCAAGGUACGAAAAUAACAUGUCCCUUGGCAGCGCAGCAAUGCGU [MAT - Exclusion Theophlline B - Mod of Eli - D5] | 11.9 |  | 30.1 |  | 13.9 |
| GAACAUAAGGAUAGUAUAAUGACUACAGAAGGAGCGUCAGGAAGGACAGGUAGGUCGCUGGAAGACAUGAGGAUCACCCAUGUUU [Arg A SS t2] | 25.6 | 22.8 | 35.3 | 24.5 | 19.4 |
| UUUUUCGCGGGUGAUACCAGCAAAGUUGUACUGGUCUGGUACAUGAGGAUCACCCAUGUUUGCCCUUGGCAGCGCUCGGGAGAAG [#22 Exclusion-TheophyllineB] | 33.2 | 21 | 39.2 | 32.7 | 23.5 |
| UCUUGAGUUUCGGAUACCAGUGUUGUCGAUACAUGAGGAUCACCCAUGUUAGAGGAUGUACACCCUUGGCAGCCGGCUGUGGCGG [zszmullin] | 13.7 |  | 21.9 |  | 19 |
| GCACUACAUGAGGAUCACCCAUGUGCAGAUACCAGAGGUGUAUGCCUCCCUUGGCAGCUGAGUAGGUCUGGAGGGCUAUUGGUUU [Same State Theophylline A GF14] | 17.8 |  | 27.8 |  | 18.2 |
| UGGGUAGCAUAGAUUGAUAGCUACACUGAAGGAGCGAGGAUAACCUCAGGUAGGUCGCAGACAUGAGGAUCACCCAUGUAGAUGG [Same State Arginine A GF17] | 77.7 | 254 | 174 | 252 | 209 |
| GGGUACAUCGCGGCCGCCACUUGUGUAAAUACAUGAGGAUCACCCAUGUCGAUGGAGACAUCGGCAAGGACCGGGUGAUGUACCG | 107 | 130 | 172 | 146 | 15.2 |
| CCCAGUUAUAACAAAGGAAUAAUACUCGAAGGAGCGUCAUAGUAGGCAGGUAGGUCGCGAGACAUGAGGAUCACCCAUGUAGAGA [qvvmullin] | 34.3 | 46 | 49.5 | 32.2 | 32.8 |
| UGGGAAGGAGGAAGGAGCGCCAUAAGGGUGACAGUCUGGGUACAUGAGGAUCACCCAUGUAGGCAGGUAGGUCGCCUAGCUCUCA [XArg-B16] | 9.4 | 9.14 | 12.9 | 12.9 | 9.56 |
| UGUAUGUGAUCUGAUACCAGUCCAACUGGUAAAACCUGAGGAACACCCAGGUAAAAUUGGGACCCUUGGCAGCAGAUCGCAUACU | 99.5 | 246 | 147 | 23 | 264 |
| UGUAUGUGAUUUGAUACCAGACCAGCUGGUGGUCCAUGAGGAACACCCAUGGAGGUUUGGGUCCCUUGGCAGCAAAUCGCAUACU [SS Theo B #24 Ms20] | 152 |  | 130 | 74.5 | 89.7 |
| CGGCCCUCACCUGAGGAACACCCAGGUGAUACCAGCCUGGAAACAGGCCCUUGGCAGCACCAGGUCAUCAAAGAUGACCAAGCCG [TheoAX 24 #SwitchBubble #AlternativeMS2] | 20.8 | 20.1 | 28.7 | 171 | 19.2 |
